The DeepSol protein solubility set

Experiment: soluble on expression in E. coli; label from the status in PepcDB or PDB records

| Sequence | soluble on expression in E. coli |
| --- | --- |
| MSLSRQIRYYGTGTEKVEEELQDLLPDANIIRMDNDTTRKKGAHAKLLAQFGSGEADILIGTQMIAKGLDFPNVTLVGVLNADTALGLPDFRASERTFQLLTQVSGRAGRAEKSGHVYIQTFNPDHYAIRFAQHHDYEGFFKYEMQMRHRGGYPPYYFTVQITASDLDEGVAAKRMYQLLQWLRPRLAPSTILLGPTPKPIARVNRRYYYQIVIKYKQEPNLAQTLTTLLHETQAQQRQGLQIGIDVEPLHFMEGHHHHHH | not soluble |
| MNHHLLSQAHLDKEKLVILVKEDEKMNSMHKDKPFFPLLIDYMSSGPVVAMLWEGCDVVKRARVILGEELEVGEFRSIFYDLVVRDTHKGCHCSDSVASANREYVLWFEEFKEGTRFD | not soluble |
| MGSDKIHHHHHHMATLSRLFIHPVKSMRGIGLTHALADISGLAFDRIFMVTEPDGTFITARQFPQMVRFTPSPLHDGLHLTAPDGSSALVRFTDFTPQDAPTEVWGNHFTARVAPTAINQWLSGFFSRDVQLRWVGPQLTRRVKRHNAVPLGFADGYPYLLTNEASLRDLQQRCPAGVQMEQFRPNLVVSGVAAWEEDSWKVLRIGDVIFDVVKPCSRCIFTTVSPEKGQKHPSGEPLATLQAFRTALDNGDVDFGQNLIARNSGVIRVGDEVEILATAPAKAYGATTVDNSVTPEKHPDASVTIDWQGQTFCGNNQQVLLEQLENQGIRIPYSCRAGICGCCRIRLLEGEVSPLKKSAMGDDGTILSCSCVPKTALRLEN | not soluble |
| MSLVYLNSNFLYGDDFEPKKGTLVIEDEIIKGFTSEHHSNVLNYKGLVIPPLINSHTHIGDNSIKDIGIGKSLDELVKPPNGLKHKFLNTCSEKELVQGMSEGLYDLENNGIKAFCDFRENGLNGINSLKSAFEDSNVSIKPIILGRPTQREENLLKDEISIILDNCDGLGLSGSNEYSDQELKFICKLVNKKILSIHANEHKGSVQYSKEKYGISEIERLINLNIKPDFLIHATHSSSDDLSLLNENKIPVVVCPRANASFNVGLPDIPKMLEYNLKLGIGTDNFMANSPSIFKEMDFIYKIYHVDPKEILKMATINGAEILGLQNTGVIKEGYIPTFTFIKNGNILKTSKNIAASVVTRLENGDVDSKFLVCEGHHHHHH | not soluble |
| MQTEVKETPRYAIVASVQLPEVSDAEFEASLTELSELAKTLGFQVVQTFVQKRSSFDRTAYMGVGKLDEISMYVKRGIRADELEDEPQELDASSVAIDALLVDHEISPSQARNLELAVGCEVMDRTMVILEIFHRNARSRAARAQVEIARLGYMAPRLREAAKLAGPQGRQRSGMGGRGAGESHTELDRRKVRDRIAELQREIVAMELERKTQRARRLERQGLGLGGVSLVGYTNAGKSTLMRALTGSEVLVANKLFATLDTTVRVLHPESVPRVLVSDTVGFIKNLPHGLVASFKSTLEEALDASLLLHAIDASDPGFQRQLEVTDEVLREIGADDVPRIRVFNKIDHVGDEAEQAAWTAELRQRYPGCVVMSALRPEDVASLRAAIVAFFQQDLVEDELLLPWSAQQLRGEIYSHCQVLEERAEEEGCWFRVRGEPEKLRSLREQLNPGSQGREKEYWEALEHHHHHH | not soluble |
| MIYSRSKLPSEGEILIATVKQVFDYGSYVSLDEYGGLQAFLPWSEVSSKWVKNIRDVLKENRKVIVKVIRVDRRKGTVDVSLKKVTDDERRKKNLQWKKIQRLDKILELVSQKLKLSEKDAWEQVAWKLEAKYGDPITAIEKAVKEGEKILIDAGVPEIWVKPLLEEASKHAEERKVKMSGLITVRTNEPLGVEKIKEVISKALENIEQDYESLLNIKIYTIGAPRYRVDVVGTNPKEASEALNQIISNLIKIGKEENVDISVVKK | soluble |
| MQHSLRSDGAGFYQLACCEYSLSMRKIALSGGFWGGVCRMAMKSIFFMFHQGNRRLTLTAVQGILLRFSLF | not soluble |
| MAHHHHHHMKYTEITIDDGAYAKIFMHSIKYSCDDVCGILIGKYLSSNEKKKKCLITNYIPLFHTHILSPYLNLAFTLVENYYKDKDERIIGYFHISSDDSKNSDIENIKVCELISEKLIKNYNDAFVCLLEFSKYVNDEDNCLNIFMKNDKSNWEKGNVVISNKNKEFLKKNISNQHYLNIYDFDDHLNSMKCDFMNPDLFNNVS | not soluble |
| MSYYHHHHHHLESTSLYKKSSSTPPRGVTVVNNFDAKRYLGTWYEIARFDHRFERGLEKVTATYSLRDDGGLNVINKGYNPDRGMWQQSEGKAYFTGAPTRAALKVSFFGPFYGGYNVIALDREYRHALVCGPDRDYLWILSRTPTISDEVKQEMLAVATREGFDVSKFIWVQQPGS | soluble |
| IVSFYQEQIIRSALALKLHQYEDTGGIIAAGTTSLPESDGATRNWDYRYCWMRDTYYTLQAFNTIGHFEESEKYFHYIENIVANELDRIQPLYTLDCSKKIEEIELDLEGYKGNKPVRVGNDAYTHIQNDVYGQILASITPLFTDRRLLHGNQFSTDIVYKLLAFIDKTMNEKDAGLWEFRHLKQLHCYTFLFHWVGAKSALKIGQLYGDHELIRKSTATIDKAAEMIERCYDPVRKVYTQAVGSTYLDASCIQLISMHYLDPSSEKARLHLKAIEEDLMVKDGLLFRYKHEDDFGKPEVTFLVCAFWYVDALASVGRIDDAIKAFESLLTYTNHVGLLSEDVGLDGSQWGNFPQTYSHVGLMNSAYRIAKKLDRPS | not soluble |
| MSTKADNRHLYLKVIERIKEDIKNGIYTEKEKLPSEFELSKKLGVSRATLREALRILEEEHVIIRRHGVGTFVHSKPLFLSGIEQLNSVTKMIEQANMTPGTIFLSSQVLMPSEDDTKRFHLAEGQELFYLERVRTADGQPIVYCIDKIPMNILPNSFSHQQESMFDLLEKNSGSVISYAVTDIEPIGYHDTISPVLECDPETALLLLKQTHYDQHDKPVLYSLNYFRADKFRFHVLRKRF | not soluble |
| ENRLVVIVLRGAMDGLDLVRPVGDPLFATYRPRLAQDGQKGEGGVIPLSEGFVLHPLLNGLSALWRKGELGFVHAVSTPYRDKRSHFDGQDMLEAGTGPDVPPGVARDGWLNRMLQAVPGLEAETAWAIGRDPLPLMEGEAPVRVWSPDLALDLSAQNRRLLEELYHEDPLFRDVGTEALELAAKLSHGAGGEGPRDAKKDLAAIDELAAFAASQLRGAARIAAFSLSGWDTHRNQAAAIRKPLLKLQRMLLQLQAELGPVWDRTAILAMTEFGRTARENGSAGTDHGTAGAMIMAGGAIRGGRVLGRWPGLDEAALYDRRDLMPTSDVRAWAAWTMRSLYGFDRELLERSVFPGIEMREDPGLVL | not soluble |
| MSLKRIKTVLAATDLSAPARHAAMRAALLAGQTDAKLGLLHVVDLQLMEHLRSFAGRSGEAAERRLIGEAMKELERLATDMTHRWGSAVEVRLVVGAVLKEIVAHADTLDADLLVMGARGAGFVRELLLGSTTERVLRLITRPVLMVKQIPHGPYQRVLVAVDFSERSVAALRLARWVAPEAHFVVLNAFQPPLENKLRQGGADEFEIMELRDAARRDADARMDEVMAHAGFPAERLTRLVLPGPALDCVLEQEQEQDCDLIVVGKHGYGWIEEMLLGSLTKHLLALSSCDVLVASQSREGHHHHHH | soluble |
| MAKKTLPAGVKSPPYIFSPIPFLGHAIAFGKSPIEFLENAYEKYGPVFSFTMVGKTFTYLLGSDAAALLFNSKNEDLNAEDVYSRLTTPVFGKGVAYDVPNPVFLEQKKMLKSGLNIAHFKQHVSIIEKETKEYFESWGESGEKNVFEALSELIILTASHCLHGKEIRSQLNEKVAQLYADLDGGFSHAAWLLPGWLPLPSFRRRDRAHREIKDIFYKAIQKRRQSQEKIDDILQTLLDATYKDGRPLTDDEVAGMLIGLLLAGQHTSSTTSAWMGFFLARDKTLQKKCYLEQKTVCGENLPPLTYDQLKDLNLLDRCIKETLRLRPPIMIMMRMARTPQTVAGYTIPPGHQVCVSPTVNQRLKDSWVERLDFNPDRYLQDNPASGEKFAYVPFGAGRHRCIGENFAYVQIKTIWSTMLRLYEFDLIDGYFPTVNYTTMIHTPENPVIRYKRRSTHHHHHH | soluble |
| MGSDKIHHHHHHMTVPPRVSAGEVFQHFRGTSPLTRARLSALTGLSRAATTDRMRTLASRGLIGPANEAPSTGGRPSAQFRLMPNSGAVMSVLLGASEAKVQAFDLSGQPLSAAKPVETVRGGYAAILDSCLASAYSLLDSMDDISGQLVATGVVLDEGAPDLDWPEYFAGRPVVVDSALGAMATAEALSRTPRPQNMLFLDVGKTIGCAVLVHGRTMGGFRTSKEAFGHTPGKGTPTLPCACGIMNCLQAIAGEEAIIAGLSSDLADEPDAISGAVRRSDAAAVSALRQAGRDIGDTLLGSIHLLQPEFITVRTRWPGAADFLLAGLREAIYASGVPAVTENLVLASSTTGSPATGIALRALDAGLAVESVDRLLSAPPNLSGQRNYWPAPLKSIDRQRHAS | not soluble |
| MRIALLVKQARLQQGVRQIDLAERLGITLRTFRRIEAGSADGVSLRDFMLVVWGLGVSERLFQGLRDDESFSVEQLEAADRKRVRLPRNRPEDF | not soluble |
| MGSDKIHHHHHHMKIGVIQASTRTDLNQLLFEAVKQAAGNQHEIVNFGVFPQETENYSYVEVAIMISLLIETGAIDFMVSGCSSGQGMMMACNSLPGLQAGFIQTPQDAFLFGRINNGNVASLSLGLNFGWAGELNLQYALNELFHGEFGIGYPPEVAERKREEAQLLLTLNDITKKSFLEIIDQLDKALLFKILKRKDLTAYLFDYGSNSLLLERLQFFRN | not soluble |
| MKKINKGKSLSRFQLVSTLSVLGAMGLAGNVHAAEAFAADSPWMTGDWNGKRTELLDKGYDFSLEYVSEMASNLKGGSNDDTTGRYSDQFALGMKVDLQKVLGWQDAEFKLAITERSGRNISNDRIGDPRAGTLSSSQEVWGRGQTWRLTQMWVKQKYFDGALDVKAGRFGPGEDFNSFPCDFQNLSFCGSQVGNYVNTWYNWPISQWALRVKYNITPEVYAQVGVYEQNPSNLETGNGFKLSGSGTKGMILPVELVWTPTVNSLPGEYRVGYYKSTPNADDVYEDVNGQPQAATGAAFKSHDSKHGWWVVAQQQLTSHNGDASRGLSIFANATVHDKETNFVDNYQQIGLTYKGPFNSRPKDDIGVGIARIHVNDDVQDRVRLANQISGINDFDNPGYLPVQSTEYNSEIYYGFHVTNWLTVRPNLQFIKHPGGVDQVDDAIVAGIKIQSKF | not soluble |
| MGSDKIHHHHHHMDARSLISLIPSLSAYKWYGKVTRVIGLTIEAKGPQASIGELCYILVGKQGTKVMAEVVGFKEERVLLMPLNGTAEIAPGSLVEGTGRPLQVKVGYSLIGHVIDGCGRPLTGEALPNGLTPYPTDNPPPNPISRPRIKEAMHLGVRAIDGLLTVGKGQRVGIFAGSGVGKSTLLAMLAKNAAADLNIIALIGERGREVKDFIERDLGEDGLRRSIIVVATSDQPALMRIKGAMTATALAEYFRDQGLHVNLMMDSVTRFAMAQREIGLAVGEPPTTKGYTPSVFALLPKLLERAGTNGKGSITGFYTVLVDGDDLNEPISDTVRGILDGHFVLDRELANKGHYPAINILKSVSRVMNDIVTDEQKRAAEHVRSLLSVYKESEDLINIGAYKRGSSKQIDEAIERQPEVISFLRQNTDEVAIAEHSIQQLIQAFGKGD | not soluble |
| KPTAEVVPVNRGFHFQTNKVPSESDVFKHNYDLTFSLNFTNKSNDIYGTGWLFDWKGDEKALGIDGSFVPSITSNIDNSLLKDDQFTVYLATNLHVADALRNDQDYEPYKKDQNKQDFTENTKTEFFSLGKYLEGEQLKQYISKEENQSANQTDKALVSIQASNIPKTAYTATDFVDMNSYSYNNITTSLPGNYADFAVI | not soluble |
